Reference: the supplement of paper PMC10567573

B1: PRKX (parent)
chain: KLLVVDRTRRLGNMKNGANDVKHH
B2: DVL3 (parent)
chain: FPELGYSYGGGSASSQHSEGSRSS

Variants of: B1
Experiment: protein stability index of a GFP-peptide fusion (GPS, HEK-293T) (PSI 1-6); higher = more stable
Conditions: c terminus: a fixed tail appended
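Also: lentivirally expressed fusions sorted by FACS into six bins by GFP to DsRed ratio, PSI derived from sequencing read proportions per bin multiplied by bin number.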

Protein stability index, by site and new letter:
M14: Y 3.03
K15: A 3.25, C 2.57, D 3.85, E 3.92, F 2.85, G 3.38, H 3.27, I 2.73, L 2.86, M 2.73, N 2.95, P 2.9, Q 3.5, R 3.6, S 3.47, T 2.78, V 2.72, W 2.48, Y 2.68
N16: A 2.54, C 2.13, D 2.85, E 3.18, F 2.42, G 2.84, H 2.85, I 2.74, K 3.19, L 2.69, M 2.26, P 3.16, Q 3.25, R 2.74, S 3.27, T 3.25, V 2.62, W 2.26, Y 2.38
G17: A 3.05, C 2.63, D 3.5, E 3.52, F 1.81, H 3.4, I 2.74, K 3.06, L 2.81, M 2.63, N 3.08, P 2.63, Q 3, R 2.55, S 2.85, T 2.9, V 3.04, W 1.86, Y 2.34
A18: C 3.55, D 3.85, E 3.67, F 2.53, G 3.27, H 3.34, I 2.35, K 3.21, L 2.7, M 2.16, N 3.19, P 2.87, Q 2.95, R 2.97, S 3.27, T 3.23, V 2.63, W 2.2, Y 2.29
N19: A 2.84, C 2.66, D 3.12, E 3.3, F 2.32, G 3.12, H 2.75, I 2.29, K 3.6, L 2.47, M 2.59, P 2.97, Q 2.89, R 2.54, S 3.16, T 3.11, V 2.64, W 2.71, Y 2.08
D20: A 3.13, C 2.33, E 3.01, F 2.13, G 3.27, H 2.89, I 2.09, K 2.55, L 2.41, M 2.71, N 2.74, P 2.75, Q 3.13, R 2.53, S 2.38, T 2.65, V 2.6, W 2.3, Y 2.19
V21: A 3.5, C 2.67, D 3.54, E 4.12, F 3.22, G 3.47, H 3.43, I 2.55, K 3.54, L 2.66, M 3.06, N 3.74, P 3.37, Q 3.36, R 2.79, S 3.2, T 3.39, W 2.62, Y 2.34
K22: A 2.71, C 2.7, D 3.42, E 3.58, F 2.04, G 3.24, H 3.06, I 2.32, L 2.97, M 2.51, N 3.06, P 3.02, Q 3.27, R 2.97, S 3.52, T 2.99, V 2.88, W 2.13, Y 2.5
H23: A 3.1, C 2.94, D 3.68, E 3.44, F 2.53, G 2.92, I 2.67, K 3.4, L 2.85, M 2.33, N 3.72, P 3.37, Q 2.69, R 2.44, S 2.73, T 3.18, V 2.96, W 3.4, Y 2.35
H24: A 3.61, C 3, D 3.4, E 3.96, F 2.36, G 2.75, I 2.23, K 3, L 2.11, M 2.63, N 2.81, P 2.91, Q 3.01, R 3.1, S 3.48, T 3.25, V 2.65, W 2.76, Y 2.46

Variants of: B2
Experiment: as above
Conditions: c terminus: a fixed tail appended

Protein stability index of substitutions, site by site:
F1: A 5.09, C 4.68, D 5.2, E 5.18, G 4.62, H 4.96, I 5.21, K 4.89, L 4.22, M 4.38, N 5.32, P 5.34, Q 5.03, R 4.86, S 4.99, T 4.95, V 4.03, W 4.25, Y 4
P2: A 2.87, C 1.99, D 5.09, E 4.66, F 3.37, G 3.12, H 2.1, I 2.07, K 4.49, L 2.86, M 3.96, N 4.26, Q 3.02, R 4.09, S 3.34, T 2.38, V 4.01, W 3.2, Y 3.1
E3: A 3.43, C 2.76, D 2.67, F 2.93, G 2.12, H 2.58, I 3.59, K 2.62, L 3.87, M 3.5, N 2.63, P 2.96, Q 3.16, R 3.41, S 1.59, T 2.19, V 3.75, W 2.99, Y 2.61
L4: A 3.47, C 2.82, D 4.52, E 4.31, F 3.16, G 1.8, H 3.33, I 3.25, K 2.98, M 2.09, N 2.35, P 3.24, Q 3.35, R 2.84, S 2.62, T 3.77, V 3.36, W 1.76, Y 2.57
G5: A 2.91, C 3.52, D 4.59, E 4.81, F 2.33, H 3.08, I 2.93, K 3.98, L 3.18, M 3.31, N 3.96, P 2.58, Q 4.39, R 3.58, S 3.52, T 3.96, V 3.64, W 1.61, Y 2.5
Y6: A 3.87, C 3.4, D 5.2, E 4.76, F 2.32, G 3.81, H 3.77, I 3.77, K 3.37, L 3.53, M 3.71, N 4.58, P 3.76, Q 4.3, R 3.5, S 3.98, T 3.7, V 3.75, W 1.66
S7: A 2.12, C 1.84, D 4.89, E 3.68, F 2.72, G 2.5, H 2.4, I 2.04, K 3.21, L 2.26, M 2.65, N 3.55, P 2.7, Q 3.22, R 2.18, T 2.36, V 2.42, W 1.74, Y 2.19
Y8: A 3.72, C 2.74, D 4.75, E 4.71, F 2.59, G 3.8, H 3.43, I 2.58, K 2.95, L 3.09
